One block for each binder: values may come before it.
How the values were obtained:
human syndecan-1 (SDC1) [1] = biological target: T1, human syndecan-1 (SDC1) (human, UniProt P18827 23-310, heparan sulfate and chondroitin sulfate chains; the lacritin-bindable form is partly or wholly deglycanated (heparanase or heparitinase)); experiment: N-15-intein beads, HEK293T/SDC1 lysate, B-B4 blot
T1 construct: Seen as 190 kDa multimer and 80 kDa band on blots; also called cell surface SDC1; native SDC1
T1 sequence: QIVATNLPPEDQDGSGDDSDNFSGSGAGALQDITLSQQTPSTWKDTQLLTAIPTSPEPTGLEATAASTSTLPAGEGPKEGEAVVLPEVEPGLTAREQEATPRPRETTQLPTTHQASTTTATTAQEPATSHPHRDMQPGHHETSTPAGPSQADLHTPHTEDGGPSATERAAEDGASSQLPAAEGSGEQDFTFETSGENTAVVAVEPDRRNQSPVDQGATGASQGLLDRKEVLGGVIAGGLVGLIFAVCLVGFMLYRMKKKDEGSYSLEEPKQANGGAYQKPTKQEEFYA
Method: (§1) All lacritin truncations were expressed as intein fusion proteins for affinity precipitation. Asterisk indicates mitogenic domain (Wang et al, submitted), and boxes represent PSIPRED-predicted alpha helices. (B) Lacritin-, C-5-, C-10-, C-15-, C-25- and C-59-intein beads were incubated with lysates from HEK293T cells stably expressing human SDC1. Beads were washed and treated with heparitinase I/chondroitinase ABC. The digests were centrifuged, and pellets (P) and supernatants (S) blotted with mAb B-B4 for SDC1 core protein, all as in FIG. 2. (C) Incubation of lacritin-, N-15- and N-24-intein beads with the same human SDC1 lysates was followed with identical washing, heparitinase I/chondroitinase ABC digestion, centrifugation and B-B4 mAb blotting. Lys, lysate. Figure 3B: Figure 3C: Figure 4A: FIG. 4. Lacritin-SDC1 binding is inhibited by soluble hS1ED, lacritin and N-24, but not by C-25, C-59, HS, CS, SDC2 or SDC4. (A) Top row, lacritin-intein beads were incubated with human SDC1 lysates from stably expressing HEK293T cells in the presence of increasing amounts of soluble HS (70-700 µg), HS (700 µg) plus CS (700 µg), lacritin (14-700 µg) or no inhibitor (−). Quantity of soluble inhibitor was calibrated relative to the approximately 7-8 µg of human SDC1 elutable from lacritin-intein beads with 1 M NaCl. […] (B) Quantification of inhibition binding.

human syndecan-1 (SDC1) [2] = biological target: T1, human syndecan-1 (SDC1); experiment: soluble competitor in lacritin-intein affinity precipitation of SDC1
Method: as §1

human syndecan-2 (SDC2) = biological target: T2, human syndecan-2 (SDC2) (human, UniProt P34741 19-201, heparan sulfate chains); experiment: SDC2 purified on FGF2-GST, salt eluted, heparitinase digested, incubated with lacritin-intein beads
T2 construct: also called native SDC2
T2 sequence (P34741 19-201 limits assumed): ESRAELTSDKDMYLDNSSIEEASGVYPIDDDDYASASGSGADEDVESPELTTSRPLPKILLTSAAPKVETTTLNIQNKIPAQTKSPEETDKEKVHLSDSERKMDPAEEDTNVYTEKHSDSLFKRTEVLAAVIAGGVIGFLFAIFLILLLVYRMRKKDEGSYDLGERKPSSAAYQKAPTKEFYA
Method: (§2) Lysates were cleared by centrifugation (20,000×g) at 4° C., and protein concentration of supernatant was estimated by the BCA assay (Pierce, Rockford Ill.). Lacritin-intein or lacritin-GST (5 µg) and FGF2-GST fusion proteins were respectively bound to chitin beads (New England Biolabs, Ipswich Mass.) or glutathione-Sepharose beads (Amersham Biosciences, Piscataway N.J.). Beads were incubated with lysates (~200 µg of SDC1 stably expressing HEK293T cells) overnight at 4° C., and washed three times with binding buffer as above (each wash three times the bead volume). In competition assays, SDC1 lysates were mixed with increasing amounts of soluble lacritin, HS, HS plus CS (Seikagaku America, Falmouth Mass.), bacterially expressed human SDC1 ectodomain (hS1ED), native SDC2, native SDC4, N-24 or C-25. Mixtures were then applied to lacritin immobilized beads, and further studied as described below. For sequential pull down assays, cell lysates were sequentially affinity precipitated with FGF2-GST or lacritin-intein. After FGF2-GST depletion of all available FGF-bindable SDC1, one-half was precipitated with lacritin-intein. The other half was methanol precipitated overnight and resuspended in heparitinase buffer. […]

human syndecan-1 (SDC1) [3] = biological target: T1, human syndecan-1 (SDC1); experiment: lacritin-intein-chitin column, detergent lysate of surface biotinylated HSG cells, 1 M NaCl elution, streptavidin blot, mass spectrometry
Method: Cell surface biotinylation, and affinity chromatography followed the method of Chen et al (1997). Briefly, six 150 mm culture dishes of 80% confluent HSG cells were washed twice on ice with ice-cold PBS and incubated for 30 min with EZ-Link Sulfo-NHS-LC Biotin (Pierce, Rockford Ill.). Cells were then washed twice with PBS-glycine, gently loosened with a cell scraper, and pelleted at 4° C. The pellet was twice resuspended in 25 ml PBS-glycine, and incubated for 30 min in 1 ml lysis buffer (50 mM Tris HCl, pH 7.4, 100 mM NaCl, 5 mM MnCl2, 2 mM PMSF, 200 mM n-octyl-β-D-glucopyranoside, and protease inhibitors (Roche Diagnostics, Penzberg Germany)). Lysate was centrifuged for 15 min at 4° C., and the supernatant applied to a 1 ml pre-column then washed through with 1 ml of binding buffer (50 mM Tris HCl, pH 7.4, 100 mM NaCl, 5 mM MnCl2, 2 mM PMSF, 50 mM n-octyl-β-D-glucopyranoside) and collected. […] For the latter, blots were blocked with PBS containing 0.1% Tween-20 and 2.5% milk for 1 h at 37° C., washed three times with PBS/0.1% Tween-20, incubated in 50 ml of 1:1000 streptavidin-horseradish peroxidase conjugate (Amersham Biosciences, Piscataway N.J.) in PBS/0.1% Tween-20, washed five times with the same buffer and then detected using ECL reagent (Pierce, Rockford Ill.). […]

human syndecan-4 (SDC4) = biological target: T3, human syndecan-4 (SDC4) (human, UniProt P31431 19-198, heparan sulfate chains); experiment: SDC4 purified on FGF2-GST, salt eluted, heparitinase digested, incubated with lacritin-intein beads
T3 construct: also called native SDC4
T3 sequence (looked up): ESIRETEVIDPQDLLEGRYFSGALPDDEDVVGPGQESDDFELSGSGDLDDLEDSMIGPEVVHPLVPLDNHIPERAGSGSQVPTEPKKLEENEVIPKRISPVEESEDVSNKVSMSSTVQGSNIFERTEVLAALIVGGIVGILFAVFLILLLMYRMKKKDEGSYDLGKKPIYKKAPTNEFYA
Method: as §2

human syndecan-1 (SDC1) [4] = biological target: T1, human syndecan-1 (SDC1); experiment: soluble competitor of lacritin-intein beads for SDC1 in HEK293T lysate, B-B4 blot
Method: as §1

human syndecan-1 (SDC1) [5] = biological target: T1, human syndecan-1 (SDC1); experiment: N-24-intein beads, HEK293T/SDC1 lysate, B-B4 blot
Method: as §1

[6] = biological target: T4, alpha-2C-adrenergic receptor (ADRA2C) (human, UniProt P18825 1-462, limits assumed); experiment: low salt competition against 125I-iodoclonidine on immobilized human ADRA2C, repeated assays
T4 sequence (looked up): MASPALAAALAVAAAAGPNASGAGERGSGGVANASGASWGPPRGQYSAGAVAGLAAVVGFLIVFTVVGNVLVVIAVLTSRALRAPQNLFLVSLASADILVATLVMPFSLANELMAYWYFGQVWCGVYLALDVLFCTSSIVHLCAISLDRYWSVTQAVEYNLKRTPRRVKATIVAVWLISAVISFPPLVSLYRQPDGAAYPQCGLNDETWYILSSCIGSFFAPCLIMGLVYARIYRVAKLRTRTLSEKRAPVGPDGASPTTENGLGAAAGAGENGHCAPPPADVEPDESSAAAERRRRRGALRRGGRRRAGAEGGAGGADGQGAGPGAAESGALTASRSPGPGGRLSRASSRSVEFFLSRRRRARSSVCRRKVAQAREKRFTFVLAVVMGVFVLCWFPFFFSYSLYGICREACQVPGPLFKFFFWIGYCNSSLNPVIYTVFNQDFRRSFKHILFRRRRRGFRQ
Method: If we are correct that syndecan-1 increases lacritin's affinity for a G-protein coupled receptor (GPCR), possibly some low affinity GPCR binding can be detected without syndecan-1 in low salt. To ask this question, a low salt screen of 31 immobilized human GPCRs in which 10 nM lacritin, N-24 or C-25 were asked to compete with 125I-receptor ligand for receptor binding. […] Although preliminary, this compares to 1698 nM for native agonist epinephrine. Possibly N-24's lack of seven negatively charged residues may improve binding in the absence of syndecan-1.

human syndecan-1 (SDC1) [7] = biological target: T1, human syndecan-1 (SDC1); experiment: C-10-intein beads, HEK293T/SDC1 lysate, B-B4 blot
Method: as §1

human syndecan-1 (SDC1) [8] = biological target: T1, human syndecan-1 (SDC1); experiment: C-5-intein beads, HEK293T/SDC1 lysate, B-B4 blot
Method: as §1

B1: N-15 lacritin-intein (ligand, not shown: small tags and cut ends)
chain: AGTSKPNEEISGPAEPASPPETTTTAQETSAAAVQGTAKVTSSRQELNPLKSIVEKSILLTEQALAKAGKGMHGGVPGGKQFIENGSEFAQKLLKKFSLLKPWA
binding result (human syndecan-1 (SDC1) [1]): binds

B2: soluble C-25 lacritin (ligand)
chain: EDASSDSTGADPAQEAGTSKPNEEISGPAEPASPPETTTTAQETSAAAVQGTAKVTSSRQELNPLKSIVEKSILLTEQALAKAGKGMHGGVPGG
notes: Range counted by me
binding result (human syndecan-1 (SDC1) [2]): no binding (tested: 14 µg)

B3: lacritin-intein (lacritin coupled to chitin beads via chitin-binding intein) (ligand, not shown: small tags and cut ends)
chain: EDASSDSTGADPAQEAGTSKPNEEISGPAEPASPPETTTTAQETSAAAVQGTAKVTSSRQELNPLKSIVEKSILLTEQALAKAGKGMHGGVPGGKQFIENGSEFAQKLLKKFSLLKPWA
notes: Bacterial fusion protein held on chitin beads; also called lacritin-intein beads; lacritin column
binding result (human syndecan-2 (SDC2)): no binding
binding result (human syndecan-1 (SDC1) [3]): binds
binding result (human syndecan-4 (SDC4)): no binding

B5: N-24 lacritin-intein (ligand, not shown: small tags and cut ends)
chain: ISGPAEPASPPETTTTAQETSAAAVQGTAKVTSSRQELNPLKSIVEKSILLTEQALAKAGKGMHGGVPGGKQFIENGSEFAQKLLKKFSLLKPWA
binding result (human syndecan-1 (SDC1) [5]): binds

B6: soluble N-24 lacritin (ligand)
chain: B5 chain
notes: Range counted by me
binding result (human syndecan-1 (SDC1) [4]): binds
Ki [6]: 1290 nM

B8: C-10 lacritin-intein (ligand, not shown: small tags and cut ends)
chain: EDASSDSTGADPAQEAGTSKPNEEISGPAEPASPPETTTTAQETSAAAVQGTAKVTSSRQELNPLKSIVEKSILLTEQALAKAGKGMHGGVPGGKQFIENGSEFAQKLL
binding result (human syndecan-1 (SDC1) [7]): binds

Second part, the binder after the results:

binding result (human syndecan-1 (SDC1) [4]): binds
B4: soluble lacritin (recombinant) (ligand)
chain: B3 chain
notes: also called intact lacritin

binding result (human syndecan-1 (SDC1) [2]): no binding (tested: 14 µg)
B7: soluble C-59 lacritin (ligand)
chain: EDASSDSTGADPAQEAGTSKPNEEISGPAEPASPPETTTTAQETSAAAVQGTAKVTSSRQ
notes: Range counted by me

binding result (human syndecan-1 (SDC1) [8]): binds
B9: C-5 lacritin-intein (ligand, not shown: small tags and cut ends)
chain: EDASSDSTGADPAQEAGTSKPNEEISGPAEPASPPETTTTAQETSAAAVQGTAKVTSSRQELNPLKSIVEKSILLTEQALAKAGKGMHGGVPGGKQFIENGSEFAQKLLKKFSL
notes: All lacritin truncations were expressed as intein fusion proteins

From patent US7932227 (UNIVERSITY OF VIRGINIA PATENT FOUNDATION, dated 2011)
